Tests used:
Assay in all cases: cell-based or functional assay
[1] = target: CH0505TF.gly3.276 Env, Env-pseudotyped virus produced in 293S GnTI- cells (Man5-enriched) (HIV-1)
[2] = target: HIV-1 426c.DM (N460D/N463D) Env on Env-pseudotyped virus produced in 293T cells (HIV-1)
[3] = target: HIV-1 Env 426c.SM (N276D), Env-pseudotyped virus produced in 293T cells (HIV-1 clade C strain 426c)
[4] = target: HIV-1 Env 426c.DM (N460D.N463D), Env-pseudotyped virus produced in 293T cells (HIV-1 clade C strain 426c)
[5] = target: HIV-1 426c.SM (N276D) Env on Env-pseudotyped virus produced in 293T cells (HIV-1)
[6] = target: HIV-1 Env 426c.TM4 (S278R.G471S.N460D.N463D), Env-pseudotyped virus produced in 293T cells (HIV-1 clade C strain 426c)
[7] = target: CH0505TF.G458Y Env, Env-pseudotyped virus produced in 293S GnTI- cells (Man5-enriched) (HIV-1)
[8] = target: HIV-1 Env 426c, Env-pseudotyped virus produced in 293T cells (HIV-1 clade C strain 426c)
[9] = target: HIV-1 Env 426c.SM (N276D), Env-pseudotyped virus produced in 293S GnTI- cells (Man5-enriched) (HIV-1 clade C strain 426c)
[10] = target: HIV-1 Env 426c.TM4 (S278R.G471S.N460D.N463D), Env-pseudotyped virus produced in 293S GnTI- cells (Man5-enriched) (HIV-1 clade C strain 426c)
[11] = target: HIV-1 clade C strain 426c Env on Env-pseudotyped virus produced in 293s/GnTI-/- cells (Man5-enrichment) (HIV-1)
[12] = target: HIV-1 Env 426c.TM (N276D.N460D.N463D), Env-pseudotyped virus produced in 293T cells (HIV-1 clade C strain 426c)
[13] = target: HIV-1 426c.DM (N460D/N463D) Env on Env-pseudotyped virus produced in 293s/GnTI-/- cells (Man5-enrichment) (HIV-1)
[14] = target: CH0505TF Env, Env-pseudotyped virus produced in 293S GnTI- cells (Man5-enriched) (HIV-1)
[15] = target: HIV-1 Env 426c.TM (N276D.N460D.N463D), Env-pseudotyped virus produced in 293S GnTI- cells (Man5-enriched) (HIV-1 clade C strain 426c)
[16] = target: CH0505TF.gly4 Env, Env-pseudotyped virus produced in 293S GnTI- cells (Man5-enriched) (HIV-1)
[17] = target: CH0505TF.gly4 Env, Env-pseudotyped virus produced in 293T cells (HIV-1)
[18] = target: CH0505TF.gly3.461 Env, Env-pseudotyped virus produced in 293T cells (HIV-1)
[19] = target: CH0505TF.gly3.197 Env, Env-pseudotyped virus produced in 293S GnTI- cells (Man5-enriched) (HIV-1)
[20] = target: CH0505TF.gly3.276 Env, Env-pseudotyped virus produced in 293T cells (HIV-1)
[21] = target: CH0505TF.gly3.461 Env, Env-pseudotyped virus produced in 293S GnTI- cells (Man5-enriched) (HIV-1)
[22] = target: HIV-1 426c.SM (N276D) Env on Env-pseudotyped virus produced in 293s/GnTI-/- cells (Man5-enrichment) (HIV-1)
[23] = target: HIV-1 426c.TM (N276D/N460D/N463D) Env on Env-pseudotyped virus produced in 293T cells (HIV-1)
[24] = target: HIV-1 Env 426c.DM (N460D.N463D), Env-pseudotyped virus produced in 293S GnTI- cells (Man5-enriched) (HIV-1 clade C strain 426c)
[25] = target: CH0505TF Env, Env-pseudotyped virus produced in 293T cells (HIV-1)
[26] = target: HIV-1 clade C strain 426c Env on Env-pseudotyped virus produced in 293T cells (HIV-1)
[27] = target: HIV-1 Env 426c, Env-pseudotyped virus produced in 293S GnTI- cells (Man5-enriched) (HIV-1 clade C strain 426c)
[28] = target: CH0505.w4.3 Env, Env-pseudotyped virus produced in 293T cells (HIV-1)
[29] = target: CH0505TF.gly3.197 Env, Env-pseudotyped virus produced in 293T cells (HIV-1)
[30] = target: HIV-1 426c.TM (N276D/N460D/N463D) Env on Env-pseudotyped virus produced in 293s/GnTI-/- cells (Man5-enrichment) (HIV-1)
[31] = target: CH0505TF.G458Y Env, Env-pseudotyped virus produced in 293T cells (HIV-1)

Substance	IC50 (µg/ml) in TZM-bl [1] [µg/mL]	ID50/IC50 in TZM-bl [2] [µg/mL]	IC50 (µg/ml) in TZM-bl [3] [µg/mL]	IC50 (µg/ml) in TZM-bl [4] [µg/mL]	ID50/IC50 in TZM-bl [5] [µg/mL]	IC50 (µg/ml) in TZM-bl [6] [µg/mL]	IC50 (µg/ml) in TZM-bl [7] [µg/mL]	IC50 (µg/ml) in TZM-bl [8] [µg/mL]	IC50 (µg/ml) in TZM-bl [9] [µg/mL]	IC50 (µg/ml) in TZM-bl [10] [µg/mL]	ID50/IC50 in TZM-bl [11] [µg/mL]	IC50 (µg/ml) in TZM-bl [12] [µg/mL]	ID50/IC50 in TZM-bl [13] [µg/mL]	IC50 (µg/ml) in TZM-bl [14] [µg/mL]	IC50 (µg/ml) in TZM-bl [15] [µg/mL]	IC50 (µg/ml) in TZM-bl [16] [µg/mL]	IC50 (µg/ml) in TZM-bl [17] [µg/mL]	IC50 (µg/ml) in TZM-bl [18] [µg/mL]	IC50 (µg/ml) in TZM-bl [19] [µg/mL]	IC50 (µg/ml) in TZM-bl [20] [µg/mL]	further results
HJ16 (antibody)	> 25	> 25	> 25	> 25	> 25	> 25	> 25	> 25	> 25	> 25	> 25	> 25	> 25	> 25	> 25	> 25	> 25	> 25	> 25	> 25	IC50 (µg/ml) in TZM-bl [21]: > 25 µg/mL; ID50/IC50 in TZM-bl [22]: > 25 µg/mL; ID50/IC50 in TZM-bl [23]: > 25 µg/mL; IC50 (µg/ml) in TZM-bl [24]: > 25 µg/mL; IC50 (µg/ml) in TZM-bl [25]: > 25 µg/mL; ID50/IC50 in TZM-bl [26]: > 25 µg/mL; IC50 (µg/ml) in TZM-bl [27]: > 25 µg/mL; IC50 (µg/ml) in TZM-bl [28]: > 25 µg/mL; IC50 (µg/ml) in TZM-bl [29]: > 25 µg/mL; ID50/IC50 in TZM-bl [30]: > 25 µg/mL; IC50 (µg/ml) in TZM-bl [31]: > 25 µg/mL
F105 (antibody)	> 25	> 25	> 25	> 25	> 25	> 25	> 25	> 25	> 25	> 25	> 25	> 25	> 25	> 25	> 25	> 25	> 25	> 25	> 25	> 25	IC50 (µg/ml) in TZM-bl [21]: > 25 µg/mL; ID50/IC50 in TZM-bl [22]: > 25 µg/mL; ID50/IC50 in TZM-bl [23]: > 25 µg/mL; IC50 (µg/ml) in TZM-bl [24]: > 25 µg/mL; IC50 (µg/ml) in TZM-bl [25]: > 25 µg/mL; ID50/IC50 in TZM-bl [26]: > 25 µg/mL; IC50 (µg/ml) in TZM-bl [27]: > 25 µg/mL; IC50 (µg/ml) in TZM-bl [28]: 10.8 µg/mL; IC50 (µg/ml) in TZM-bl [29]: > 25 µg/mL; ID50/IC50 in TZM-bl [30]: > 25 µg/mL; IC50 (µg/ml) in TZM-bl [31]: > 25 µg/mL
3869 (antibody)	> 25	> 25	> 25	> 25	> 25	> 25	> 25	> 25	> 25	> 25	> 25	> 25	> 25	> 25	> 25	> 25	> 25	> 25	> 25	> 25	IC50 (µg/ml) in TZM-bl [21]: > 25 µg/mL; ID50/IC50 in TZM-bl [22]: > 25 µg/mL; ID50/IC50 in TZM-bl [23]: > 25 µg/mL; IC50 (µg/ml) in TZM-bl [24]: > 25 µg/mL; IC50 (µg/ml) in TZM-bl [25]: > 25 µg/mL; ID50/IC50 in TZM-bl [26]: > 25 µg/mL; IC50 (µg/ml) in TZM-bl [27]: > 25 µg/mL; IC50 (µg/ml) in TZM-bl [28]: 3.1 µg/mL; IC50 (µg/ml) in TZM-bl [29]: > 25 µg/mL; ID50/IC50 in TZM-bl [30]: > 25 µg/mL; IC50 (µg/ml) in TZM-bl [31]: > 25 µg/mL

From patent US20230140293A1
